This assay deals with GST-VPS29C (human) (UniProt F8VXU5). Description: ITC; 300 μM peptide titrated into 10 μM GST-tagged VPS29C, 25 °C, 50 mM Tris-HCl pH 7.5, 200 mM NaCl, 2 mM β-mercaptoethanol; single-site model. For orientation: Isothermal titration calorimetry measures the heat released or taken up as one component is titrated into another.

Data on one substance can be found in paper PMC12260524, “Identification of a VPS29 isoform with restricted association to Retriever and Retromer accessory proteins through autoinhibition” (Proceedings of the National Academy of Sciences of the …, 2025).

Some results are limits rather than exact numbers.

Broadly, the Kd is the free concentration of one partner at which half of the binding sites on the other are occupied at equilibrium, for simple one-to-one binding. A lower Kd goes with a tighter complex. Take “VPS35L 28 to 37 (from UniProt Q7Z3J2 28-37) (peptide)”: the Kd is > 100 µM.
